According to paper PMC11002309, “Cancer-associated polybromo-1 bromodomain 4 missense variants variably impact bromodomain ligand binding and cell growth suppression” (The Journal of Biological Chemistry, 2024):
Substitutions are numbered along the chain they refer to. Values belong to the binder of their own block, whether it stands above or below them.

Molecular target: T1, biotinylated histone H3K14ac(1–20) peptide (acetyl-lysine at K14; biotin on the added C-terminal lysine; C-terminal amide (CONH2))
T1 construct: histone H3, residues 1-20; added C-terminal lysine that carries the biotin; also called H3K14ac peptide; Kac peptide; source: synthetic peptide, bought: Peptide 2.0
Experiment: AlphaScreen or HTRF; full titration: His6-PBRM1-BD4 protein 0.001–2 μM against 50 nM biotinylated H3K14ac(1–20) peptide; streptavidin donor and nickel-chelate acceptor beads; 1× AlphaLISA Epigenetics buffer, 0.05% Tween 20, 2 μM TCEP; room temperature; n = 3
Conditions: both partners purified

EC50: 490 ± 130 nM
B1: PBRM1-BD4 M586I (domain or fragment, human, UniProt Q86U86-5 496-637, looked up)
chain: GDSMISSATSDTGSAKRKSKKNIRKQRMKILFNVVLEAREPGSGRRLCDLFMVKPSKKDYPDYYKIILEPMDLKIIEHNIRNDKYAGEEGIIEDMKLMFRNARHYNEEGSQVYNDAHILEKLLKEKRKELGPLPDDDDMASP
notes: polybromo-1 (PBRM1), fourth bromodomain (BD4) construct, aa 496-637, cancer-associated missense variant; source: E. coli BL21(DE3), purified (Ni-NTA, gel filtration)

EC50: 210 ± 20 nM
fold reduction of affinity against WT: 2 to 15 fold
B2: PBRM1-BD4 R576L (domain or fragment, human, UniProt Q86U86-5 496-637, looked up)
chain: B1 chain with R81L, I91M
notes: as for B1

EC50: 1000 ± 90 nM
fold reduction of affinity against WT: 2 to 15 fold
B3: PBRM1-BD4 P556S (domain or fragment, human, UniProt Q86U86-5 496-637, looked up)
chain: B1 chain with P61S, I91M
notes: as for B1
